Test results from patent US6979572B1, “Compositions and methods for inhibiting inward-rectifier potassium channels” (Trustees of the University of Pennsylvania, priority 1998, dated 2005).
Where two headings read alike, the source gives them in different places. Peptide text beside a SMILES is read from it.

Key:
GIRK1/4 channel = target: T1, GIRK1/4 channel (Rattus norvegicus, UniProt P48548+P63251); test: cell-based; conditions: for inhibition at 1 µM: read-out: inhibition of the GIRK1/4 channel
T1 construct: expressed in transfected cells; host or cells: Xenopus laevis oocytes (cRNA injection)
T1 sequence (P63251 1-501): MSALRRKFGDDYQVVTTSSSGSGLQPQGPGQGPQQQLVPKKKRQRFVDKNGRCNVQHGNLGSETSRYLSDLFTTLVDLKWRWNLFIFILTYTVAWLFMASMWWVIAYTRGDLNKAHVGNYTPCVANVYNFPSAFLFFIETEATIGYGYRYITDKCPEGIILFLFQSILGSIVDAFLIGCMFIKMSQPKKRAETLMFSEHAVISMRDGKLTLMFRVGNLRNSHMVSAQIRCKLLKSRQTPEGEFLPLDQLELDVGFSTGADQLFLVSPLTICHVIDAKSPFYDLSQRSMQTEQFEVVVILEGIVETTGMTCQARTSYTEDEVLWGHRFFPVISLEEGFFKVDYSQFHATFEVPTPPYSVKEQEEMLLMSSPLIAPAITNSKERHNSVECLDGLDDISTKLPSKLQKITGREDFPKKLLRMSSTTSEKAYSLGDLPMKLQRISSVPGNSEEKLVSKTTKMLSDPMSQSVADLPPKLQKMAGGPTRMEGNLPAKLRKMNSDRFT
T1 sequence (P48548 1-419): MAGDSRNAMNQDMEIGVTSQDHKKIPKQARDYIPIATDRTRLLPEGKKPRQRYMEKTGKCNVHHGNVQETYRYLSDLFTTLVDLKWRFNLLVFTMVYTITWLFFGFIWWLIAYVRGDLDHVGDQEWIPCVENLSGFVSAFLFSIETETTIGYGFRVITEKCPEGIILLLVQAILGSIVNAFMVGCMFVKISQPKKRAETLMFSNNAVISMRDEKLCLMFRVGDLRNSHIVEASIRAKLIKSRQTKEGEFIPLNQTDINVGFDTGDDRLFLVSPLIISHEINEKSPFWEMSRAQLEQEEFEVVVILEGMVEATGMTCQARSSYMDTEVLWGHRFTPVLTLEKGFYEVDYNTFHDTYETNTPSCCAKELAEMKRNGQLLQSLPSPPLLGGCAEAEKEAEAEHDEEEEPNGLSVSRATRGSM

[1] = target: T2, GIRK1/4 inward-rectifier K+ channel, P63251
T2 chain 1: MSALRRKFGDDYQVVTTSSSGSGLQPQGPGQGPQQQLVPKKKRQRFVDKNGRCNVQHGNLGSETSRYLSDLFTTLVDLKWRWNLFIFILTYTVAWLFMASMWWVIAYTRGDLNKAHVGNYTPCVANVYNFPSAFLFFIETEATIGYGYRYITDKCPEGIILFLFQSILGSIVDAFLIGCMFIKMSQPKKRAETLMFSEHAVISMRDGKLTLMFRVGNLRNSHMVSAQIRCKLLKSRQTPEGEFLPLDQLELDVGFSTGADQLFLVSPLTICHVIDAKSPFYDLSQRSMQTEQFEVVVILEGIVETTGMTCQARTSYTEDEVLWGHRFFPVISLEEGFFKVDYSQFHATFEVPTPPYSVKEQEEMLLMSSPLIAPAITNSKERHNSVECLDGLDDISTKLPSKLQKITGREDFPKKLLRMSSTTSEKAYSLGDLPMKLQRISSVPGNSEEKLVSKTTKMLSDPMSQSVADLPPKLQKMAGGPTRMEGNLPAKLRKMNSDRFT
T2 chain 2: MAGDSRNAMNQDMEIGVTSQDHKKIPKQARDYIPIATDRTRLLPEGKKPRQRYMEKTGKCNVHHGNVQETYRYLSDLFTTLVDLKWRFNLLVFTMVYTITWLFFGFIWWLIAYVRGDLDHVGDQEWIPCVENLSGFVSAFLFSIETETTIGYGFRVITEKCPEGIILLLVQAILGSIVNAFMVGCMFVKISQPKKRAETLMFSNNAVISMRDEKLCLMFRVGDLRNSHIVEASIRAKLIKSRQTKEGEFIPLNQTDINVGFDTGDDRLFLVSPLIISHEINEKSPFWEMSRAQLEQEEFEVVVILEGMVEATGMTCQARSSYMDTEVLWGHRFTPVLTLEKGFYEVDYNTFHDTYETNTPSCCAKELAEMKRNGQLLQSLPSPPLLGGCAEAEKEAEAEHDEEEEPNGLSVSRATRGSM

[2] = target: T3, ROMK1 N171D channel, P35560
T3 chain: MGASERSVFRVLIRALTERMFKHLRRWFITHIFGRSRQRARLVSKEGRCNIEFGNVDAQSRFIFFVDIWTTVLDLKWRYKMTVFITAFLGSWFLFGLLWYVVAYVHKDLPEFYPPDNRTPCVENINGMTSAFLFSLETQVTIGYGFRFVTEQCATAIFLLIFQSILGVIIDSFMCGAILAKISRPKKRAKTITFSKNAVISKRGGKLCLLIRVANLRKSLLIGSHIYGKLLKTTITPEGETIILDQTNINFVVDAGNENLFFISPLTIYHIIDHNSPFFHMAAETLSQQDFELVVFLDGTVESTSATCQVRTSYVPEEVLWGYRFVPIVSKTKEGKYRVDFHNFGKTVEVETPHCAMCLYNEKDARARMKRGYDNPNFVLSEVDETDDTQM

[3] = target: T2, GIRK1/4 inward-rectifier K+ channel, …; test: cell-based or functional assay
[4] = target: T4, ROMK1 inward-rectifier K+ channel (wild-type), P35560
T4 chain: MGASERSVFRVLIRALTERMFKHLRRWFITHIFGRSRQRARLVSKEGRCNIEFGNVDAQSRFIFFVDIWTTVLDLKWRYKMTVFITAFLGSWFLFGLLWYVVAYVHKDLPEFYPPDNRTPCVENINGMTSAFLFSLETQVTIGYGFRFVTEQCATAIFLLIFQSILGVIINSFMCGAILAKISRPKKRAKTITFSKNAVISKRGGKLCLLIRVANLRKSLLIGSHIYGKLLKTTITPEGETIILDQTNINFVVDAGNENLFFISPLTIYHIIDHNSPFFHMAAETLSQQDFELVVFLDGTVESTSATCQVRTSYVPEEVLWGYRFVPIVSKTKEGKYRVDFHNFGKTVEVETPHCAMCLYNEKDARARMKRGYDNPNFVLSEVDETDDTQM

[5] = target: T5, ROMK1 G127S channel, P35560
T5 chain: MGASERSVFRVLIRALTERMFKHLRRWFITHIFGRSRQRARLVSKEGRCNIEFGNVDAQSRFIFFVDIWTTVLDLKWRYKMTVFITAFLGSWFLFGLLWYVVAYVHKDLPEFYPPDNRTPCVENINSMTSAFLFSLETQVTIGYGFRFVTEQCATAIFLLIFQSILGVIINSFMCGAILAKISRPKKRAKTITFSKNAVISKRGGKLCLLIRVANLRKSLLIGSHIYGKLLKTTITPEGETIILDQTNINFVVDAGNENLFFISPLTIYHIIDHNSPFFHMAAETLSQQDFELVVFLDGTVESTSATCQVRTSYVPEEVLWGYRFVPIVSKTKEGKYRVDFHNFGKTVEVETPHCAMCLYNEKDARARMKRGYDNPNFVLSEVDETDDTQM

[6] = target: T6, ROMK1 F146A channel, P35560
T6 chain: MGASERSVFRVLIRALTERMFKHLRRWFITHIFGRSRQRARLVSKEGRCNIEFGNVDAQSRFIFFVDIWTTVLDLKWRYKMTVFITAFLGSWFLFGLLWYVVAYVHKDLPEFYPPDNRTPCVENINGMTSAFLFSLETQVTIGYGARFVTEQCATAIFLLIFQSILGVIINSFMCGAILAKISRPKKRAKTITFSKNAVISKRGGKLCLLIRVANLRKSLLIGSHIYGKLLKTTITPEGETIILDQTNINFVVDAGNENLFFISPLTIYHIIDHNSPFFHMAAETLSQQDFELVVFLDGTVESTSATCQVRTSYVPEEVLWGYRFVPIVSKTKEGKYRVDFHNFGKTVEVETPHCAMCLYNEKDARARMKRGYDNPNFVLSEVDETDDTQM

[7] = target: T7, ROMK1 N124A channel, P35560
T7 chain: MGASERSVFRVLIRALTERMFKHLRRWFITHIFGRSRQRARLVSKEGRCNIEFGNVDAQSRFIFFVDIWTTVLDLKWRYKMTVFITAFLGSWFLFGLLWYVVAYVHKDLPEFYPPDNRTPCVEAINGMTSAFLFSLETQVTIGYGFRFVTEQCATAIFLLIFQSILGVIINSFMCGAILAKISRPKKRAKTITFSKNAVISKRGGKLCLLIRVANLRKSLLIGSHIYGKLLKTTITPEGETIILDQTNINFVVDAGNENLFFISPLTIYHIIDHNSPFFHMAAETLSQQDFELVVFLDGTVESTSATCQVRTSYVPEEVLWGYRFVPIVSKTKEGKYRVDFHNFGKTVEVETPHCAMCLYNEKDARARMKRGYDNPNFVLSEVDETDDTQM

[8] = target: T8, ROMK1 I142L channel, P35560
T8 chain: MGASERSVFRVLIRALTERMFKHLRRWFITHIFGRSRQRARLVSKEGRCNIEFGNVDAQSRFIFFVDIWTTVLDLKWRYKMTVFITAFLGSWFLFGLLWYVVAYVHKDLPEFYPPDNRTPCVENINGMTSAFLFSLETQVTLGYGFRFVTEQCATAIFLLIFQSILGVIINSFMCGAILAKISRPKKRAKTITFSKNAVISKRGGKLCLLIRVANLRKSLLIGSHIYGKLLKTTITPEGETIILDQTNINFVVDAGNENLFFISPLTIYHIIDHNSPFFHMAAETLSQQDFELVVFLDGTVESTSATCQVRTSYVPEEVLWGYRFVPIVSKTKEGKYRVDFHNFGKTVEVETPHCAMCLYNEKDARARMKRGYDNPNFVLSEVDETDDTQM

[9] = target: T2, GIRK1/4 inward-rectifier K+ channel, …
[10] = target: T2, GIRK1/4 inward-rectifier K+ channel, …

In the case of `CC[C@H](C)[C@H](N)C(=O)N[C@@H](CCCCN)C(=O)N[C@H]1CSSC[C@@H]2NC(=O)[C@H]([C@@H](C)CC)NC(=O)[C@H](Cc3c[nH]cn3)NC(=O)[C@@H]3CCCN3C(=O)[C@H](CCCCN)NC(=O)[C@H]([C@@H](C)CC)NC(=O)[C@H](C(C)C)NC(=O)[C@H](Cc3c[nH]cn3)NC(=O)[C@H](CCCNC(=N)N)NC(=O)[C@H](CCCCN)NC(=O)[C@H](CSSC[C@@H](C(=O)NCC(=O)N[C@@H](CCCCN)C(=O)N[C@@H](CC(N)=O)C(N)=O)NC(=O)[C@H]([C@@H](C)CC)NC(=O)[C@H](CCCCN)NC(=O)[C@H](CCCNC(=N)N)NC2=O)NC(=O)[C@H](CC(N)=O)NC1=O` [MCDP, mast cell degranulating peptide] (HELM PEPTIDE1{I.K.C.N.C.K.R.H.V.I.K.P.H.I.C.R.K.I.C.G.K.N.[am]}$PEPTIDE1,PEPTIDE1,3:R3-15:R3|PEPTIDE1,PEPTIDE1,5:R3-19:R3$$$V2.0; N-terminus and C-terminus assumed; bridges inferred), the “effect on / sensitivity of the GIRK1/4 channel, in words” value (GIRK1/4 channel) is reported as “do not inhibit the activity” and the inhibition at 1 µM (GIRK1/4 channel) is reported as 20 to 30%.

Work on `CC(C)C[C@@H]1NC(=O)[C@H](C)NC(=O)[C@H]([C@@H](C)O)NC(=O)[C@H](CCC(=O)O)NC(=O)[C@@H]2CCCN2C(=O)[C@H](C)NC(=O)[C@H](CCCCN)NC(=O)[C@@H]2CSSC[C@@H](C(=O)N[C@@H](CCC(N)=O)C(=O)N[C@@H](CCC(N)=O)C(=O)N[C@@H](Cc3cnc[nH]3)C(N)=O)NC(=O)[C@H](CCCNC(=N)N)NC(=O)[C@H](CCCNC(=N)N)NC(=O)[C@H](C)NC(=O)[C@H](CSSC[C@H](N)C(=O)N[C@@H](CC(N)=O)C(=O)N2)NC1=O` [apamin] yielded a Kd (GIRK1/4 channel; GIRK1/4, read-out: affinity of the channel (Kd)) of over 1000 nM and an inhibition at 1 µM (GIRK1/4 channel; at 1 μM concentration) of 20 to 30%.

ALCNCNRIIIPHMCWKKCGKK (modifications not checked) [native tertiapin] was tested, and the Kd [1] was 8.2 nM.

ALCNCNRIIIPHMCWKKCGKK (modifications not checked) [synthetic tertiapin] was tested, and the Kd [2] was 1.5 nM, the inhibition of the GIRK1/4 current at 10 nM [3] was 50% and the Kd [4] was 2 nM. The Kd [5] was 2.7 nM, the Kd [6] was 65.2 nM and the Kd [7] was 13.9 nM. The fold lower affinity than the wild-type ROMK1 channel [8] was 8 fold, the Kd [9] was 8 nM and the Kd [1] was 8.6 nM.

Work on IKCNCKRHVIKPHICRKICGKN (modifications not checked) [mast cell degranulating peptide, P01499 28-49] yielded a Kd [10] of over 1000 nM and a fold lower affinity than for tertiapin [9] of over 100 fold.

CNCKAPETALCARRCQQH (modifications not checked) [apamin, P01500 28-45] was tested, and the Kd [10] was over 1000 nM and the fold lower affinity than for tertiapin [9] was over 100 fold.
